Tests used:
Test in all cases: cell-based or functional assay
[1] = biological target: HIV-1 Env of pseudovirus 231966.c02 (HIV-1)
[2] = biological target: HIV-1 Env of pseudovirus C1080.c03 (HIV-1)
[3] = biological target: HIV-1 Env of pseudovirus 3301.v1.c24 (HIV-1)
[4] = biological target: HIV-1 Env of pseudovirus T251-18 (HIV-1)
[5] = biological target: HIV-1 Env of pseudovirus C4118.c09 (HIV-1)
[6] = biological target: HIV-1 Env of pseudovirus 928-28 (HIV-1)
[7] = biological target: HIV-1 Env of pseudovirus 6480.v4.c25 (HIV-1)
[8] = biological target: HIV-1 Env of pseudovirus 191084 B7-19 (HIV-1)
[9] = biological target: HIV-1 Env of pseudovirus 263-8 (HIV-1)
[10] = biological target: HIV-1 Env of pseudovirus 3817.v2.c59 (HIV-1)
[11] = biological target: HIV-1 Env of pseudovirus 6540.v4.c1 (HIV-1)
[12] = biological target: HIV-1 Env of pseudovirus 6545.v4.c1 (HIV-1)
[13] = biological target: HIV-1 Env of pseudovirus 6811.v7.c18 (HIV-1)
[14] = biological target: HIV-1 Env of pseudovirus R2184.c04 (HIV-1)
[15] = biological target: HIV-1 Env of pseudovirus BJOX028000.10.3 (HIV-1)
[16] = biological target: HIV-1 Env of pseudovirus X2131_C1_B5 (HIV-1)
[17] = biological target: HIV-1 Env of pseudovirus BJOX010000.06.2 (HIV-1)
[18] = biological target: HIV-1 Env of pseudovirus 0815.v3.c3 (HIV-1)
[19] = biological target: HIV-1 Env of pseudovirus T255-34 (HIV-1)
[20] = biological target: HIV-1 Env of pseudovirus 191955_A11 (HIV-1)
[21] = biological target: HIV-1 Env of pseudovirus R3265.c06 (HIV-1)
[22] = biological target: HIV-1 Env of pseudovirus 620345.c01 (HIV-1)
[23] = biological target: HIV-1 Env of pseudovirus X1193_c1 (HIV-1)
[24] = biological target: HIV-1 Env of pseudovirus X1632_S2_B10 (HIV-1)
[25] = biological target: HIV-1 Env of pseudovirus BJOX015000.11.5 (HIV-1)
[26] = biological target: HIV-1 Env of pseudovirus P1981_C5_3 (HIV-1)
[27] = biological target: HIV-1 Env of pseudovirus 3016.v5.c45 (HIV-1)
[28] = biological target: HIV-1 Env of pseudovirus 9004SS_A3_4 (HIV-1)
[29] = biological target: HIV-1 Env of pseudovirus 211-9 (HIV-1)
[30] = biological target: HIV-1 Env of pseudovirus A07412M1.vrc12 (HIV-1)
[31] = biological target: HIV-1 Env of pseudovirus BJOX025000.01.1 (HIV-1)
[32] = biological target: HIV-1 Env of pseudovirus R1166.c01 (HIV-1)
[33] = biological target: HIV-1 Env of pseudovirus 235-47 (HIV-1)
[34] = biological target: HIV-1 Env of pseudovirus P0402_c2_11 (HIV-1)
[35] = biological target: HIV-1 Env of pseudovirus X1254_c3 (HIV-1)
[36] = biological target: HIV-1 Env of pseudovirus 89-F1_2_25 (HIV-1)

N49P7 (antibody)
IC50 (neutralisation, TZM.bl cells) [1]: 0.102 µg/mL
IC80 (neutralisation, TZM.bl cells) [1]: 0.43 µg/mL
MPI [1]: 100
IC50 [2]: 0.114 µg/mL
IC80 [2]: 0.765 µg/mL
MPI [2]: 100
IC50 (neutralisation, TZM.bl cells) [3]: 0.025 µg/mL
IC80 (neutralisation, TZM.bl cells) [3]: 0.069 µg/mL
MPI [3]: 100
IC50 [4]: 0.178 µg/mL
IC80 [4]: 0.62 µg/mL
MPI [4]: 100
IC50 [5]: 0.043 µg/mL
IC80 [5]: 0.147 µg/mL
MPI [5]: 100
IC50 [6]: 0.167 µg/mL
IC80 [6]: 0.579 µg/mL
MPI [6]: 100
IC50 (neutralisation, TZM.bl cells) [7]: 0.031 µg/mL
IC80 (neutralisation, TZM.bl cells) [7]: 0.113 µg/mL
MPI [7]: 100
IC50 [8]: 0.047 µg/mL
IC80 [8]: 0.142 µg/mL
MPI [8]: 100
IC50 [9]: 0.056 µg/mL
IC80 [9]: 0.201 µg/mL
MPI [9]: 100
IC50 (neutralisation, TZM.bl cells) [10]: 0.716 µg/mL
IC80 (neutralisation, TZM.bl cells) [10]: 3.73 µg/mL
MPI [10]: 99
IC50 (neutralisation, TZM.bl cells) [11]: 11.7 µg/mL
IC80 (neutralisation, TZM.bl cells) [11]: 33.2 µg/mL
MPI [11]: 92
IC50 (neutralisation, TZM.bl cells) [12]: 2 µg/mL
IC80 (neutralisation, TZM.bl cells) [12]: 14.7 µg/mL
MPI [12]: 96
IC50 (neutralisation, TZM.bl cells) [13]: 0.229 µg/mL
IC80 (neutralisation, TZM.bl cells) [13]: 0.992 µg/mL
MPI [13]: 100
IC50 [14]: 0.011 µg/mL
IC80 [14]: 0.031 µg/mL
MPI [14]: 100
IC50 [15]: 0.02 µg/mL
IC80 [15]: 0.123 µg/mL
MPI [15]: 100
IC50 (neutralisation, TZM.bl cells) [16]: 0.081 µg/mL
IC80 (neutralisation, TZM.bl cells) [16]: 0.273 µg/mL
MPI [16]: 100
IC50 [17]: 0.085 µg/mL
IC80 [17]: 0.592 µg/mL
MPI [17]: 100
IC50 (neutralisation, TZM.bl cells) [18]: 0.016 µg/mL
IC80 (neutralisation, TZM.bl cells) [18]: 0.053 µg/mL
MPI [18]: 100
IC50 [19]: 0.053 µg/mL
IC80 [19]: 0.262 µg/mL
MPI [19]: 100
IC50 [20]: 1.81 µg/mL
IC80 [20]: 8.87 µg/mL
MPI [20]: 99
IC50 [21]: 0.048 µg/mL
IC80 [21]: 0.282 µg/mL
MPI [21]: 100
IC50 [22]: 23.2 µg/mL
IC80 [22]: 47.9 µg/mL
MPI [22]: 82
IC50 [23]: 0.016 µg/mL
IC80 [23]: 0.06 µg/mL
MPI [23]: 100
IC50 (neutralisation, TZM.bl cells) [24]: 12 µg/mL
IC80 (neutralisation, TZM.bl cells) [24]: 40.4 µg/mL
MPI [24]: 85
IC50 [25]: 0.036 µg/mL
IC80 [25]: 0.157 µg/mL
MPI [25]: 100
IC50 (neutralisation, TZM.bl cells) [26]: 0.113 µg/mL
IC80 (neutralisation, TZM.bl cells) [26]: 0.274 µg/mL
MPI [26]: 100
IC50 (neutralisation, TZM.bl cells) [27]: 0.221 µg/mL
IC80 (neutralisation, TZM.bl cells) [27]: 1.04 µg/mL
MPI [27]: 100
IC50 [28]: 0.125 µg/mL
IC80 [28]: 0.39 µg/mL
MPI [28]: 100
IC50 [29]: 0.22 µg/mL
IC80 [29]: 0.767 µg/mL
MPI [29]: 100
IC50 (neutralisation, TZM.bl cells) [30]: 0.108 µg/mL
IC80 (neutralisation, TZM.bl cells) [30]: 0.645 µg/mL
MPI [30]: 100
IC50 [31]: 0.038 µg/mL
IC80 [31]: 0.236 µg/mL
MPI [31]: 100
IC50 [32]: 0.092 µg/mL
IC80 [32]: 0.313 µg/mL
MPI [32]: 100
IC50 [33]: 0.045 µg/mL
IC80 [33]: 0.3 µg/mL
MPI [33]: 99
IC50 [34]: 0.014 µg/mL
IC80 [34]: 0.061 µg/mL
MPI [34]: 100
IC50 [35]: 2.97 µg/mL
IC80 [35]: 13.6 µg/mL
MPI [35]: 100
IC50 (neutralisation, TZM.bl cells) [36]: 21.6 µg/mL
IC80 (neutralisation, TZM.bl cells) [36]: > 50 µg/mL
MPI [36]: 80

Source: US20240117018A1
